Laboratory results published in patent publication US20230192839A1 (published 2023).

B1: P01_A09 scFv-Fc fusion (scFv, V domains shown)
VH: QVQLVESGGGLVQAGGSLRLSCAASRRSSRSWAMHWVRQAPGKGLEWVAVISYDGRLKYYADSVKGRFTISRDNAEYLVYLQMNSLRAEDTAVYYCAAERPTSDGSTGGMDVWGQGTLVTVSS
VL: DIQMTQSPSSLSASVGDRVTITCRASQSISSYLNWYQQKPGKAPKLLIYGASTLQSGVPSRFSGSGSGTDFTLTISSLQPEDFATYYCQQSYSSGTFGQGTKVEIK
notes: Tested as scFv-Fc fusion
B2: P05_A11 scFv-Fc fusion (scFv, V domains shown)
VH: QVQLVESGGGLVQAGGSLRLSCAASRRSSRSWAMHWVRQAPGKGLEWVAVISYDGRLKYYADSVKGRFTISRDNAEYLVYLQMNSLRAEDTAVYYCAASDDADIFDDYSYGAMDYWGQGTLVTVSS
VL: QSVLTQPPSASGTPGQRVTISCSGSSSNIGRNYVYWYQQLPGTAPKLLIYMTSQRPSGVPDRFSGSKSGTSASLAISGLRSEDEADYYCASWDDNLRAWVFGTGTKLTVL
notes: Tested as scFv-Fc fusion
B3: P08_E05 scFv-Fc fusion (scFv, V domains shown)
VH: QVQLVESGGGLVQAGGSLRLSCAASRRSSRSWAMHWVRQAPGKGLEWVAVISYDGRLKYYADSVKGRFTISRDNAEYLVYLQMNSLRAEDTAVYYCAADGKGAAWSEVDEPDVWGQGTLVTVSS
VL: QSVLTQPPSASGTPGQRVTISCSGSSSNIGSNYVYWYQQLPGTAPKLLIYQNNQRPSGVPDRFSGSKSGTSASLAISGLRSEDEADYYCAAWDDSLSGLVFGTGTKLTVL
notes: Tested as scFv-Fc fusion
B4: P01_B06 scFv-Fc fusion (scFv, V domains shown)
VH: QVQLVESGGGLVQAGGSLRLSCAASRRSSRSWAMHWVRQAPGKGLEWVAVISYDGRLKYYADSVKGRFTISRDNAEYLVYLQMNSLRAEDTAVYYCAADTSMFASYDPMDVWGQGTLVTVSS
VL: QSVLTQPPSASGTPGQRVTISCSGSSSNIGRNYVNWYQQLPGTAPKLLIYRDDHRPSGVPDRFSGSKSGTSASLAISGLRSEDEADYYCASWDDTLSGWVFGTGTKLTVL
notes: Tested as scFv-Fc fusion
B5: P02_E11 scFv-Fc fusion (scFv, V domains shown)
VH: QVQLVESGGGLVQAGGSLRLSCAASRRSSRSWAMHWVRQAPGKGLEWVAVISYDGRLKYYADSVKGRFTISRDNAEYLVYLQMNSLRAEDTAVYYCAAEASTDNGLDYWGQGTLVTVSS
VL: DIQMTQSPSSLSASVGDRVTITCRASQTISRHLNWYQQKPGKAPKLLIYSASSLASGVPSRFSGSGSGTDFTLTISSLQPEDFATYYCQQSHSAGTFGQGTKVEIK
notes: Tested as scFv-Fc fusion
B6: P02_H01 scFv-Fc fusion (scFv, V domains shown)
VH: QVQLVESGGGLVQAGGSLRLSCAASRRSSRSWAMHWVRQAPGKGLEWVAVISYDGRLKYYADSVKGRFTISRDNAEYLVYLQMNSLRAEDTAVYYCAAGSGGGDGLDVWGQGTLVTVSS
VL: DIQMTQSPSSLSASVGDRVTITCRASQTISSYLNWYQQKPGKAPKLLIYSSSTLQGGVPSRFSGSGSGTDFTLTISSLQPEDFATYYCQQSYSSGTFGQGTKVEIK
notes: Tested as scFv-Fc fusion
B7: P03_A01 scFv-Fc fusion (scFv, V domains shown)
VH: QVQLVESGGGLVQAGGSLRLSCAASRRSSRSWAMHWVRQAPGKGLEWVAVISYDGRLKYYADSVKGRFTISRDNAEYLVYLQMNSLRAEDTAVYYCAAETGSVGLDYWGQGTLVTVSS
VL: DIQMTQSPSSLSASVGDRVTITCRASQGISTYLNWYQQKPGKAPKLLIYGATSLESGVPSRFSGSGSGTDFTLTISSLQPEDFATYYCQQGYSQGTFGQGTKVEIK
notes: Tested as scFv-Fc fusion

What was measured:
human CD33 antigen [1] = target: T1, human CD33 antigen (human, UniProt P20138 18-259, limits assumed); assay: SPR (Biacore T200), 37 C, scFv-Fc, 0 uM MTX
T1 construct: whole entry named; also called Siglec-3
T1 sequence (P20138 18-259 limits assumed): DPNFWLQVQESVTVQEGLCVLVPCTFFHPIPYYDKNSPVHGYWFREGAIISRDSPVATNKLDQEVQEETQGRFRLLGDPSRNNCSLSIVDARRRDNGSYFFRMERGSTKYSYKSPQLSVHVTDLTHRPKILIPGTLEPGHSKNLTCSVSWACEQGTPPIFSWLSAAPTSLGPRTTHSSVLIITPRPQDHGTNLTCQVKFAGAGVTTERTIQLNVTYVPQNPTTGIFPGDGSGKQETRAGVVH
Protocol: (§1) All binding kinetics analysis was performed on label-free Biacore surface plasmon biosensors (Biacore T200™ from GE Life Sciences) at 37° C. in 10 mM Hepes pH 7.4, 150 mM NaCl, 0.05% Tween-20 (HBST+), with or without 10 µM MTX. The Biacore data were processed in Biacore T200 Evaluation Software, and the data were double-referenced (Myszka, 1999, J Mol Recognit 12(5):279-284) and fit globally to a simple Langmuir with mass transport model to determine the equilibrium dissociation constant, KD, from the ratio of the kinetic rate constants (KD = koff/kₒₙ). In some cases the binding of antigen was very low (or not detectable) in the presence of 10 µM MTX and as a result kinetic rate constants could not be accurately determined. In these cases, a KD (or KD limit) was estimated based on the binding response at the highest analyte concentration tested or based on the typical limit of detection for a Biacore T200.

human CD33 antigen [2] = target: T1, human CD33 antigen; assay: SPR (Biacore T200), 37 C; KD at 10 uM MTX / KD at 0 uM MTX
Protocol: as §1

human CD33 antigen [3] = target: T1, human CD33 antigen; assay: SPR (Biacore T200), 37 C, scFv-Fc, 10 uM MTX; KD estimated, rate constants not determined
Protocol: as §1
(§2) “*”: For interactions where kₒₙ and koff are reported, the KD was calculated using koff/kₒₙ.

[4] = target: T2, human epidermal growth factor receptor antigen (human, UniProt P00533 25-645, limits assumed); assay: SPR (Biacore T200), 37 C, scFv-Fc, 0 uM MTX
T2 construct: whole entry named; also called EGFR
Protocol: as §1
(§3) The first 4 rounds of panning used biotinylated EGFR antigen captured on streptavidin or neutravidin coated 96-well plates. […] 1536 clones were randomly chosen from the 4th and 5th round of panning against the EGFR antigen and their binding specificity determined by phage ELISA.

[5] = target: T2, human epidermal growth factor receptor …; assay: SPR (Biacore T200), 37 C, scFv-Fc, 10 uM MTX
Protocol: as §1, §3, §2

[6] = target: T2, human epidermal growth factor receptor …; assay: SPR (Biacore T200), 37 C; KD at 10 uM MTX / KD at 0 uM MTX
Protocol: as §1, §3

Row | Binder | Kd (human CD33 antigen [1]) | koff (human CD33 antigen [1]) | kon (human CD33 antigen [1]) | Ratio: KD with MTX / KD without MTX (human CD33 antigen [2]) | Kd (human CD33 antigen [3]) | Kd [4] | koff [4] | kon [4] | Kd [5] | koff [5] | kon [5] | Ratio: KD with MTX / KD without MTX [6]
1 | B1 | 154 nM | 0.017 s⁻¹ | 110000 M⁻¹ s⁻¹ | 8.5 | 1300 nM | – | – | – | – | – | – | –
2 | B2 | – | – | – | – | – | 235 nM | 0.028 s⁻¹ | 120000 M⁻¹ s⁻¹ | 580 nM | 0.05 s⁻¹ | 87000 M⁻¹ s⁻¹ | 2.5
3 | B3 | – | – | – | – | – | 360 nM | 0.071 s⁻¹ | 200000 M⁻¹ s⁻¹ | 480 nM | 0.073 s⁻¹ | 150000 M⁻¹ s⁻¹ | 1.3
4 | B4 | – | – | – | – | – | 230 nM | 0.024 s⁻¹ | 100000 M⁻¹ s⁻¹ | 256 nM | 0.026 s⁻¹ | 100000 M⁻¹ s⁻¹ | 1.1
5 | B5 | 66 nM | 0.0038 s⁻¹ | 58000 M⁻¹ s⁻¹ | 221 | 14600 nM | – | – | – | – | – | – | –
6 | B6 | 1320 nM | 0.037 s⁻¹ | 28000 M⁻¹ s⁻¹ | 3.3 | 4340 nM | – | – | – | – | – | – | –
7 | B7 | 115 nM | 0.0057 s⁻¹ | 50000 M⁻¹ s⁻¹ | 37 | 4270 nM | – | – | – | – | – | – | –
